The source of these data is US20240270826A1 (NATIONAL RESEARCH COUNCIL OF CANADA, published 2024).

The target in test [1] is T1, SARS-CoV-2 S2 (aa686-1208) (Wuhan) (SARS-CoV-2 Wuhan, UniProt P0DTC2 686-1208).
T1 construct: NRC; FLAG, 6xHis tags
The test can be described thus: ELISA. For orientation: In an ELISA, binding on a coated surface is turned into a signal by an enzyme label.

Test [2] concerns the target T2, SARS-CoV-2 S on CHO-S cells (SARS-CoV-2, UniProt P0DTC2 14-1273).
T2 construct: whole, on cells
As to the kind of experiment: flow cytometry, CHO-S cells.

The target in test [3] is SARS-CoV-2 S1-NTD (aa16-305) (SARS-CoV-2 Wuhan, UniProt P0DTC2 16-305). As to the kind of experiment: ELISA.
The target in test [4] is T3, SARS-CoV-2 spike trimer S (Wuhan, SmT1) (SARS-CoV-2 Wuhan).
T3 construct: extracellular domain
As to the kind of experiment: SPR, antigen on chip. In general terms: SPR reads the build-up and loss of mass on a sensor chip optically.

The target of test [5] is T4, SARS-CoV-2 S1 (aa16-685) (Wuhan) (SARS-CoV-2 Wuhan, UniProt P0DTC2 16-685).
T4 construct: NRC; FLAG, 6xHis tags
The test can be described thus: SPR, antigen on chip.

The target in test [6] is T1, SARS-CoV-2 S2 (aa686-1208) (Wuhan). As to the kind of experiment: SPR, antigen on chip.
Test [7] deals with SARS-CoV-2 S1-RBD fused to human Fc (S1-RBD-Fc) (SARS-CoV-2 Wuhan; human). As to the kind of experiment: SPR, antigen on chip.
Test [8] has as its target Human SARS-CoV-2_Wuhan S (SmT1) (SARS-CoV-2 (Wuhan), UniProt P0DTC2 14-1208). The test can be described thus: tandem SPR, immobilized S, orientation 1: VHH alone.

B1: NRCoV2-SR01 VHH-Fc (Fc fusion)
chain: EVQLVQSGGGSVQAGGSLRLSCVASGFTFDNYAIGWFRQAPGKEREGVSCISGNGGVTIYADSVKGRFTISRDNAKNLVYLQMNSLKPEDTAVYYCAATGIRSTWSVYGCSRLAGPYDYWGQGTQVTVSS
notes: bivalent VHH-Fc
For the molecule B1, the binding result in test [1] is “no binding (tested: 13 nM)”. For the same molecule, in test [2], the Bmax was 15400 and a half-maximal response (EC50) required 6.6 nM.

B2: NRCoV2-07 VHH-Fc (Fc fusion)
chain: QVQLVQSGGGLVQPGGSLRLSCAASGVTLDYYAIGWFRQAPGKEREAVSCISSNGRRNHYVASVRGRFTISRDNAKSTVYLQMNSLKPEDTAVYYCAAVQDVHGDNYYCTSPNEYNVWGQGTQVTVSS
notes: bivalent VHH-Fc
Take B2: the binding result in test [1] and in test [3] was “no binding (tested: 13 nM)” in each case. This molecule returned a Bmax in test [2] of 10600. In test [2], this molecule yielded an EC50 of 1.1 nM.

B3: NRCoV2-07 VHH (VHH)
VHH: QVQLVQSGGGLVQPGGSLRLSCAASGVTLDYYAIGWFRQAPGKEREAVSCISSNGRRNHYVASVRGRFTISRDNAKSTVYLQMNSLKPEDTAVYYCAAVQDVHGDNYYCTSPNEYNVWGQGTQVTVSS
Consider B3, for which the Kd is 1.15 nM in test [4], 1.02 nM in test [5] and 0.894 nM in test [7]. For the same molecule, the koff was 0.000403 s⁻¹ in test [4], 0.000308 s⁻¹ in test [5] and 0.000284 s⁻¹ in test [7]. For the same molecule, the kon was determined as 350000 M⁻¹ s⁻¹ in test [4], 301000 M⁻¹ s⁻¹ in test [5] and 318000 M⁻¹ s⁻¹ in test [7]. Also, in test [6], the binding result was “no binding”.

B4: NRCoV2-14 VHH (VHH)
VHH: EVQLVSSGGGLVQAGGSLRLSCEASGTTFSHYAVGWYRQAPGKQREWVASISVFGSTTYGGSVAGRFTISRDNDKNTVDLQMNSLKPEDTAVYYCHAVNADIGGDYWGQGTQVTVSS
Take B4: in test [4], the Kd came out at 3.1 nM, the off-rate constant (koff) was found to be 0.00164 s⁻¹ and the kon was found to be 528000 M⁻¹ s⁻¹. In test [5], this molecule returned a dissociation constant Kd of 3.49 nM, a dissociation rate constant (koff) of 0.00112 s⁻¹ and a kon of 319000 M⁻¹ s⁻¹. Further, the binding result in test [6] is listed as “no binding”. In test [7], this molecule gave a dissociation constant Kd of 3.61 nM, a koff of 0.000944 s⁻¹ and a kon of 261000 M⁻¹ s⁻¹.

B5: NRCoV2-15 VHH (VHH)
VHH: EVQLVSSGGGLVEAGGSLRLSCIASGSTSGRNTMGWFRQAPGKQREWVAIVSTSGATNYAGSVKGRFTLSRDNAKNAVYLQMNNLKPEDTAVYYCYAAYGGGGDYWGQGTQVTVSS
Take B5: in test [4], the Kd is 0.313 nM, the koff worked out at 0.000221 s⁻¹ and the kon turned out to be 706000 M⁻¹ s⁻¹. In test [5], this molecule yielded a Kd of 0.333 nM, a koff of 0.000225 s⁻¹ and a kon of 675000 M⁻¹ s⁻¹. For the same molecule, in test [6], the binding result was “no binding”. Besides, in test [7], binding was characterised by a dissociation constant (Kd) of 0.342 nM, the koff amounted to 0.000233 s⁻¹ and the kon is 682000 M⁻¹ s⁻¹.

B6: NRCoV2-20 VHH-Fc (Fc fusion)
chain: EVQLQQSGGGLVQPGGSLRLSCAASGRTFSNYVVGWFRQAPQAPGKDHEFVAVISGSDTETYYADSVKGRFTISRDNAKNTVYLQMNSLKPEDTAVYYCAADRGMSYYYTRATEYYYWGQGTQVTVSS
notes: bivalent VHH-Fc
Take B6: the binding result in test [1] and in test [3] was “no binding (tested: 13 nM)” in each case. Further, in test [2], the Bmax was 12100. The molecule further showed an EC50 in test [2] of 0.7 nM.

B7: NRCoV2-05 VHH (VHH)
VHH: EVKLVQSGGGLVQPGGSLRLSCAASGFIFSNYAMNWVRQAPGKGLEWVSGINSGGGDTRYADSVKGRFTVSRDNAKNTLYLQMNSLKPEDTGVYYCSKGPVSSYYGSGYDYRGQGTQVTVSS
On to B7, for which, in test [8], the “End 1st inj (RU)” value is 36.9 RU.

B8: NRCoV2-SR02 VHH-Fc (Fc fusion)
chain: EVQLVDSGGGLVQAGGSLRLSCTASEFTLNYYSIGWFRQSPGKEREGVSCIRYSGGGIDYADSVKGRFTISRDNAKNTVYLTMNSLKPEDTAVYYCAADRLYSRACPTAGGRNYWGQGTQVTVSS
notes: bivalent VHH-Fc
Consider B8, for which the binding result in test [1] is given as “no binding (tested: 13 nM)”. In test [2], this molecule yielded a Bmax of 14400 and an EC50 of 1.2 nM.

B9: NRCoV2-03 VHH (VHH)
VHH: EVQLVSSGGGLVQAGGSLRLSCTASGITFSYYAMGWYRQAPGQPRELVASMSNMDSTIYADSVKGRFTISRDNAKTTIYLQMNNLKPEDTAVYFCNIYGPTYSTRRNEYWGQGTQVTVSS
In the case of B9, the “End 1st inj (RU)” value in test [8] amounted to 18.1 RU.

B10: NRCoV2-04 VHH (VHH)
VHH: AVQLVDSGGGLVQPGGSLRLSCAASGSPFSNVVMAWYRQAPGKQRERVAFISGGGIADYIMSVKGRFTISRDNAKNTVYLQMNSLKPEDTAVYYCWSSYESTWGQGTQVTVSS
B10: the “End 1st inj (RU)” value in test [8] is 41.4 RU.

B11: NRCoV2-MRed04 VHH-Fc (Fc fusion)
chain: EVQLVESGGGLVQPGRSLRLSCAASGNSFSISTMGWFRQAPGKERELVASIWSDTTTSYADSVKGRFTISTDNTRTKVYLQMSSLNPEDTAVYYCAADRGFVVRGQYDYWGQGTQVTVSS
notes: bivalent VHH-Fc
Consider B11, for which, in test [1], the binding result is “no binding (tested: 13 nM)”. Also, the binding result in test [3] is recorded as “no binding (tested: 13 nM)”. In addition, in test [2], the Bmax came to 14900 and the EC50 worked out at 4.2 nM.

B12: NRCoV2-SR13 VHH-Fc (Fc fusion)
chain: EVQLVESGGGLVTTGGSLRLSCATSGSRFGSKHMAWYRQAPGKQRDLVAAISSGGSTHYGSSVKGRFTISRDNAKSTVYLQMNSLNPEDTAVFYCNMGGWDYRSNTYIPGSRSDYWGQGTQVTVSS
notes: bivalent VHH-Fc
Take B12: the binding result in test [1] is on record as “no binding (tested: 13 nM)”. In test [2], this molecule had a Bmax of 17800 and an EC50 of 7 nM.

B13: NRCoV2-1d VHH-Fc (Fc fusion)
chain: EVQLVESGGGSVQPGGSLRLSCAASGSTLDYYAIGWFRQAPGKEREWVSSVSSSDGNTLYADSVKGRFTISRDNAKNTVYLQMNSLKAEDTAVYVCAADYSMRPFAVGRWHRDYEYWGQGTQVTVSS
notes: bivalent VHH-Fc
Turning to B13, in test [1], the binding result is listed as “no binding (tested: 13 nM)”. Further, the binding result in test [3] is listed as “no binding (tested: 13 nM)”. In test [2], the Bmax was 13800 and the half-maximal effective concentration (EC50) came to 1.1 nM.

B14: NRCoV2-1d VHH (VHH)
VHH: EVQLVESGGGSVQPGGSLRLSCAASGSTLDYYAIGWFRQAPGKEREWVSSVSSSDGNTLYADSVKGRFTISRDNAKNTVYLQMNSLKAEDTAVYVCAADYSMRPFAVGRWHRDYEYWGQGTQVTVSS
B14: the “End 1st inj (RU)” value in test [8] was 26.3 RU.

B15: NRCoV2-11 VHH-Fc (Fc fusion)
chain: EVQLVSSGGGLVQPGGSLRLSCAASGSSLDSYSVSWFRQAPGKEREWISFISRYYSSTYYTDSVKGRFTTSRDGDQKTVHLQMNSLKPEDTAVYYCAARSRDFSSPFSATDTYTSWGQGTQVTVSS
notes: bivalent VHH-Fc
As to B15, the binding result in test [1] and in test [3] was “no binding (tested: 13 nM)” each time. Besides, in test [2], the Bmax turned out to be 18200. In test [2], this molecule had an EC50 of 4.3 nM.

B16: NRCoV2-11 VHH (VHH)
VHH: EVQLVSSGGGLVQPGGSLRLSCAASGSSLDSYSVSWFRQAPGKEREWISFISRYYSSTYYTDSVKGRFTTSRDGDQKTVHLQMNSLKPEDTAVYYCAARSRDFSSPFSATDTYTSWGQGTQVTVSS
Regarding B16, the “End 1st inj (RU)” value in test [8] is 21.8 RU.

B17: NRCoV2-06 VHH (VHH)
VHH: EVQLVQSGGGLVQAGESLRLSCAASVSTFSSYAMGWYRQAPGKQRELVASIGFVGATYYIDSVKGRFTISRDNAKKTAYLQMNDLKPDDTAVYYCNARHYGGSEYWGQGTQVTVSS
B17: the “End 1st inj (RU)” value in test [8] stood at 38.5 RU.

B18: NRCoV2-18 VHH-Fc (Fc fusion)
chain: EVQLVESGGGLVQAGGSLRLSCVASGITISGYNMAWWRQTRGKQTERVAFINSGGSTTYSDSVKGRFTISRDNGKNTAYLQMNSLNAEDTADYFCSLHTSHDYWGQGTQVTVSS
notes: bivalent VHH-Fc
In the case of B18, the binding result in test [1] is “no binding (tested: 13 nM)”. In test [3], the binding result is “no binding (tested: 13 nM)”. Moreover, in test [2], the Bmax is 18300 and a half-maximal response (EC50) required 0.9 nM.

B19: NRCoV2-10 VHH (VHH)
VHH: QLQLQESGGGLVQPGGSLTLSCAASGNTFSRSNMHWYRQAPGAQREWVAAISSRGISTYAYSAKGRFTISRDNAKNTVSLQMNSLKPEDTAVYYCYAADDLGDYWGQGTQVTVSS
With B19, the “End 1st inj (RU)” value in test [8] came to 9.6 RU.

B20: NRCoV2-10 VHH (VHH)
VHH: QLQLQESGGGLVQPGGSLTLSCAASGNTFSRSNMHWYRQAPGAQREWVAAISSRGISTYAYSAKGRFTISRDNAKNTVSLQMNSLKPEDTAVYYCYAADDLGDYWGQGTQVTVSS
For the molecule B20, in test [4], binding was put at a Kd of 0.192 nM, the koff was determined as 9.27e-05 s⁻¹ and the kon stood at 483000 M⁻¹ s⁻¹. Moreover, in test [5], the Kd worked out at 0.213 nM, the koff was found to be 9.54e-05 s⁻¹ and the kon turned out to be 448000 M⁻¹ s⁻¹. Moreover, the binding result in test [6] is on record as “no binding”. Also, in test [7], the dissociation constant (Kd) stood at 0.266 nM, the koff came to 9.32e-05 s⁻¹ and the kon came out at 351000 M⁻¹ s⁻¹.

By EC50 is commonly meant the concentration at which the effect is half-maximal. A higher EC50 goes with a need for much substance. The term Kd denotes a measure of binding affinity in units of concentration. A high value points to a looser complex. A word on the koff: it is a measure of how fast the partners let go of each other. A high value points to fast dissociation. Usually kon stands for a measure of how fast the partners come together. The low end stands for slower complex formation, the high end for faster complex formation.
